# Laboratory results taken from PMC10164552, “PBRM1 bromodomains associate with RNA to facilitate chromatin association”.
# B1: dsRNAIV (no loop) (dsRNA)
# RNA 1: GGCAUCGUGC
# RNA 2: GCACGAUGCC
# B2: dsDNA 11 bp (dsDNA)
# DNA 1: CGTAGACAGCT
# DNA 2: AGCTGTCTACG
# How the values were obtained:
# PBRM1 BD4 [1] = molecular target: T1, PBRM1 BD4 (UniProt Q86U86 496-637); test: NMR titration (1H-15N HSQC); Kd only in figure, stated similar to other dsRNAs; NMR: 0.1 mM 15N-BD, 50 mM K phosphate pH 7.0, 50 mM KCl, 2 mM DTT, 2 mM EDTA, 7% D2O, 25 C; EMSA: 50 mM K phosphate pH 7.0, 10 mM KCl, 2 mM DTT, 2 mM EDTA, 5% sucrose, on ice 1 h, gel at 4 C; settings: protein: recombinant, tags: His tag, TEV-cleaved
# PBRM1 BD2 [2] = molecular target: T2, PBRM1 BD2 (UniProt Q86U86 178-291); test: NMR titration (1H-15N HSQC); NMR: 0.1 mM 15N-BD, 50 mM K phosphate pH 7.0, 50 mM KCl, 2 mM DTT, 2 mM EDTA, 7% D2O, 25 C; EMSA: 50 mM K phosphate pH 7.0, 10 mM KCl, 2 mM DTT, 2 mM EDTA, 5% sucrose, on ice 1 h, gel at 4 C; settings: protein: recombinant, tags: His tag, TEV-cleaved
# PBRM1 BD4 [3] = molecular target: T1, PBRM1 BD4; test: as above; settings: protein: recombinant, tags: His tag, TEV-cleaved
# PBRM1 BD2 [4] = molecular target: T2, PBRM1 BD2; test: NMR titration (1H-15N HSQC); Kd only in figure, stated similar to other dsRNAs; NMR: 0.1 mM 15N-BD, 50 mM K phosphate pH 7.0, 50 mM KCl, 2 mM DTT, 2 mM EDTA, 7% D2O, 25 C; EMSA: 50 mM K phosphate pH 7.0, 10 mM KCl, 2 mM DTT, 2 mM EDTA, 5% sucrose, on ice 1 h, gel at 4 C; settings: protein: recombinant, tags: His tag, TEV-cleaved, hairpin
# PBRM1 BD4 KRK_AAA = PBRM1 BD4 KRK_AAA (UniProt Q86U86 496-637, K511A;R512A;K513A); test: NMR titration (1H-15N HSQC); NMR: 0.1 mM 15N-BD, 50 mM K phosphate pH 7.0, 50 mM KCl, 2 mM DTT, 2 mM EDTA, 7% D2O, 25 C; EMSA: 50 mM K phosphate pH 7.0, 10 mM KCl, 2 mM DTT, 2 mM EDTA, 5% sucrose, on ice 1 h, gel at 4 C; settings: protein: recombinant; tags: His tag, TEV-cleaved; hairpin, UUCG loop
# PBRM1 BD2 SKY_AAA = PBRM1 BD2 SKY_AAA (UniProt Q86U86 178-291, S275A;K277A;Y281A); test: as above; settings: protein: recombinant; tags: His tag, TEV-cleaved; hairpin, UUCG loop
# Chain of PBRM1 BD2 SKY_AAA (Q86U86 178-291 S275A/K277A/Y281A): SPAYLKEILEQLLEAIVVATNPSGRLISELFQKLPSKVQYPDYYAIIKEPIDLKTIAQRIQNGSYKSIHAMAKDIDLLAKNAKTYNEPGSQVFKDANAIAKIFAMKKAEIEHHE
# T2 sequence (Q86U86 178-291): as the sequence (Q86U86 178-291 S275A/K277A/Y281A) above, with A98S, A100K, A104Y counted along it
# T1 sequence (Q86U86 496-637): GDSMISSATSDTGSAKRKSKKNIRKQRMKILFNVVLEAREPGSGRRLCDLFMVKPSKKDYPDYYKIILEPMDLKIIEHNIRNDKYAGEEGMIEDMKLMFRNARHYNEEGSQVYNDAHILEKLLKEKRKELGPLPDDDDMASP
# Chain of PBRM1 BD4 KRK_AAA (Q86U86 496-637 K511A/R512A/K513A): as the sequence (Q86U86 496-637) above, with K16A, R17A, K18A counted along it
binder,measurement,setting,value
B1,binding result,PBRM1 BD4 [1]; blunt,binds
B2,Kd,PBRM1 BD2 [2]; blunt,910 ± 380 µM
same,Kd,PBRM1 BD4 [3]; blunt,500 ± 270 µM
GGCAUCGUGCUUCGGCACGAUGCC (structured_RNA) [dsRNAII stem-loop],binding result,PBRM1 BD2 [4]; UUCG loop,binds
same,binding result,"PBRM1 BD4 [1]; hairpin, UUCG loop",binds
UUUUUUUUUUUUU (ssRNA) [ssRNAI poly-U 13 nt],Kd,PBRM1 BD2 [2],350 ± 80 µM
same,Kd,PBRM1 BD4 [3],320 ± 140 µM
CGTAGACAGCT (ssDNA) [ssDNA],Kd,PBRM1 BD2 [2],130 ± 30 µM
same,Kd,PBRM1 BD4 [3],2970 ± 140 µM
GGCAUCGUGCAUCAGAAUGGCACGAUGCC (structured_RNA) [dsRNAIII stem-loop],binding result,PBRM1 BD2 [4],binds
same,binding result,PBRM1 BD4 [1]; hairpin,binds
GCGUAGACAGCUGUUCGCAGCUGUCUACGC (structured_RNA) [dsRNAI stem-loop 30 nt],Kd,"PBRM1 BD2 [2]; hairpin, UUCG loop",25 ± 8 µM
same,Kd,PBRM1 BD4 KRK_AAA,1020 ± 40 µM
same,Kd,PBRM1 BD2 SKY_AAA,200 ± 70 µM
same,Kd,"PBRM1 BD4 [3]; hairpin, UUCG loop",120 ± 20 µM
